Reference: patent US11214772B2, “Production method for retinal tissue” (SUMITOMO DAINIPPON PHARMA CO., LTD., priority 2014, dated 2022)

B1: BMP4: human recombinant BMP4 (manufactured by R&D), BMP signal transduction pathway activating substance (protein, UniProt P12644 293-408, looked up)
Bone morphogenetic protein 4: SPKHHSQRARKKNKNCRRHSLYVDFSDVGWNDWIVAPPGYQAFYCHGDCPFPLADHLNSTNHAIVQTLVNSVNSSIPKACCVPTELSAISMLYLDEYDKVVLKNYQEMVVEGCGCR

Legend:
Type in all cases: cell-based
[1] = system: human iPS cells (1231A3 strain); experiment: Bright field observation of cell aggregates in suspension culture (aggregate shape, neuroepithelium / neural tissue formation); conditions: for aggregate growth and neuroepithelium formation (bright field): Example 7, SAG 30 nM, PMA 0.2 μM or human recombinant Shh 300 ng/ml day 0, BMP4 1.5 nM day 3
Protocol: The above subconfluent human iPS cells were treated with a cell dispersion solution by using TrypLE Select (Life Technologies), and further dispersed into single cells by a pipetting operation. Thereafter, the above human iPS cells dispersed into single cells were suspended in 100 μl of a serum-free medium in a non-cell-adhesive 96 well culture plate (PrimeSurface 96V-bottom plate, SUMITOMO BAKELITE) at 1.2×10^4 cells per well, and subjected to suspension culturing at 37° C., 5% CO2. As a serum-free medium (gfCDM+KSR) therefor, a 1:1 mixture of F-12 medium and IMDM medium supplemented with 10% KSR, 450 μM 1-monothioglycerol, 1× Chemically defined lipid concentrate was used. At the start of the suspension culturing (on day 0 after the start of suspension culturing, step 2 start), Y27632 (final concentration 20 μM) was added to the above serum-free medium. By day 2 after the start of suspension culturing, cell aggregates were formed (step 2 completed, and step 3 start). On day 3 after the start of suspension culturing, a serum-free medium (50 μl) free of Y27632 was added.
On day 6 after the start of suspension culturing, a half amount of the medium was changed with a medium free of Y27632 and containing or not containing human recombinant BMP4 (manufactured by R&D) to adjust the final concentration of exogenous human recombinant BMP4 to 1.5 nM (55 ng/ml, FIG. 1B) or to give a medium free of exogenous human recombinant BMP4 (FIG. 1A). As the half-medium exchange operation, a half volume of the medium in the culture vessel, namely 75 μl, was discarded, the above fresh serum-free medium (75 μl) was added to adjust the total medium amount to 150 μl. Thereafter, a half amount of the medium was changed with the above serum-free medium free of Y27632 and human recombinant BMP4 once per 2-4 days. […]
The thus-prepared subconfluent human iPS cells were treated with a cell dispersion solution by using TrypLE Select (Life Technologies), and further dispersed into single cells by a pipetting operation. Thereafter, the above human iPS cells dispersed into single cells were suspended in 100 μl of a serum-free medium in a non-cell-adhesive 96 well culture plate (PrimeSurface 96V-bottom plate, SUMITOMO BAKELITE) at 1.2×10^4 cells per well, and subjected to suspension culturing at 37° C., 5% CO2. As a serum-free medium (gfCDM+KSR) therefor, a 1:1 mixture of F-12 medium and IMDM medium supplemented with 10% KSR, 450 μM 1-monothioglycerol, 1× Chemically defined lipid concentrate was used. […] By day 2 after the start of suspension culturing, cell aggregates were formed (step 2 completed, step 3 start). On day 3 after the start of suspension culturing, a serum-free medium (50 μl) free of Y27632 and SAG was added. On day 6 after the start of suspension culturing, a half amount of the medium was changed with a medium free of Y27632 and containing or not containing human recombinant BMP4 (manufactured by R&D) to adjust the final concentration of exogenous human recombinant BMP4 to 1.5 nM (55 ng/ml, FIG. 1D) or to give a medium free of exogenous human recombinant BMP4 (FIG. 1C). As the half-medium exchange operation, a half volume of the medium in the culture vessel, namely 75 μl, was discarded, the above fresh serum-free medium (75 μl) was added to adjust the total medium amount to 150 μl. Thereafter, a half amount of the medium was changed with the above serum-free medium free of Y27632, SAG and human recombinant BMP4 once per 2-4 days. […]
The thus-prepared subconfluent human iPS cells were treated with the cell dispersion solution by using TrypLE Select (Life Technologies), further dispersed into single cells by pipetting operation, and the above human iPS cells dispersed into single cells were suspended in 100 μl of a serum-free medium at 1.2×10^4 cells per well of a non-cell-adhesive 96-well culture plate (PrimeSurface 96V-bottom plate, manufactured by SUMITOMO BAKELITE). Thereafter, the cells were subjected to suspension culturing at 37° C., 5% CO2. […]

[2] = system: human iPS cells (201B7 strain); experiment: Bright field observation of cell aggregates in suspension culture (neuroepithelium formation); conditions: Example 6; StemFit; SAG 30 nM, Purmorphamine 0.2 μM or human recombinant Shh 50 ng/ml day 0; BMP4 1.5 nM day 3; day 18
Protocol: The thus-prepared subconfluent human iPS cells were treated with the cell dispersion solution by using TrypLE Select (manufactured by Life Technologies), further dispersed into single cells by pipetting operation, and the above human iPS cells dispersed into single cells were suspended in 100 μl of a serum-free medium at 1.2×10^4 cells per well of a non-cell-adhesive 96-well culture plate (PrimeSurface 96V-bottom plate, SUMITOMO BAKELITE). Thereafter, the cells were subjected to suspension culturing at 37° C., 5% CO2. As the serum-free medium (gfCDM+KSR) therefor, a serum-free medium which is a 1:1 mixture of F-12 medium and IMDM medium supplemented with 10% KSR, 450 μM 1-monothioglycerol, 1× Chemically defined lipid concentrate was used. At the time of the start of suspension culturing (day 0 after the start of suspension culturing, start of step 2), a serum-free medium supplemented with SAG (final concentration […]) as a Shh signal transduction pathway activating substance and Y27632 (20 μM) was used (FIG. 5A-D). By day 2 after the start of suspension culturing, cell aggregates were formed. On day 3 after the start of suspension culturing, a serum-free medium (50 μl) free of Y27632 and SAG was added. […] The thus-prepared cell aggregates were subjected to bright field observation under an inverted microscope (BIOREVO manufactured by KEYENCE) on day 18 after the start of suspension culturing.
The thus-prepared subconfluent human iPS cells were treated with the cell dispersion solution by using TrypLE Select (manufactured by Life Technologies), further dispersed into single cells by pipetting operation, and the above human iPS cells dispersed into single cells were suspended in 100 μl of a serum-free medium at 1.0×10^4 cells per well of a non-cell-adhesive 96-well culture plate (SUMILON SPHEROID V-bottom plate PrimeSurface 96V-bottom plate, SUMITOMO BAKELITE). Thereafter, the cells were subjected to suspension culturing at 37° C., 5% CO2. As the serum-free medium (gfCDM+KSR) therefor, a serum-free medium which is a 1:1 mixture of F-12 medium and IMDM medium supplemented with 10% KSR, 450 μM 1-monothioglycerol, 1× Chemically defined lipid concentrate was used. At the time of the start of suspension culturing (day 0 after the start of suspension culturing, start of step 2), the above serum-free medium supplemented with Y27632 (final concentration 20 μM) and further supplemented with SAG (final concentration 30 nM), Purmorphamine (manufactured by Wako, final concentration 0.2 μM), or human recombinant Shh (manufactured by R&D, Recombinant N-Terminus, final concentration 50 ng/ml) as a Shh signal transduction pathway activating substance was used (FIG. 8). On day 2 after the start of suspension culturing, a cell aggregates were formed. […]

[3] = system: human iPS cells (1231A3 strain); experiment: Immunostaining of aggregate cryosections for retinal tissue markers Chx10 and Rx; conditions: Example 7, BMP4 1.5 nM day 3, day 18
Excerpt: The above cell aggregates on day 19 after the start of suspension culturing were each fixed with 4% para-formaldehyde to give cryosections. These cryosections were immunostained for Chx10 (anti-Chx10 antibody, manufactured by Exalpha, sheep), which is one of the retinal tissue markers, or Rx (anti-Rx antibody, manufactured by TAKARA, guinea pig), which is one of the retinal tissue markers. In judgment of whether the above marker is positive in the immunostaining analysis, a fluorescence intensity which is not less than 2 times higher than that of the background was taken as positive.
The thus-prepared cell aggregates on day 18 after the start of suspension culturing, which were produced by adding SAG in step 2 from feeder-free iPS cells as a starting material, were fixed with 4% para-formaldehyde to produce frozen sections. These frozen sections were immunostained for Chx10 (anti-Chx10 antibody, Exalpha, sheep), which is one of the retinal tissue markers, or Rx (anti-Rx antibody, manufactured by TAKARA, guinea pig), which is one of the retinal tissue markers. These immunostained sections were observed under an inverted fluorescence microscope.
The cell aggregates on day 18 after the start of suspension culturing were fixed with 4% para-formaldehyde to produce frozen sections. These frozen sections were immunostained for Chx10 (anti-Chx10 antibody, Exalpha, sheep), which is one of the retinal tissue markers.

[4] = Comparative Example 1, StemFit, no SAG, BMP4 1.5 nM on day 6, observed day 19
[5] = Example 2 Condition 2, Essential 8, no SAG, BMP4 1.5 nM day 6, day 18

| Molecule | aggregate growth and neuroepithelium formation (bright field) ([1]; StemFit, day 18) | neuroepithelium formation (bright field) [2] | presence of Chx10-positive cells in the cell aggregate ([3]; SAG 30 nM or Shh 300 ng/ml day 0) | proportion of Chx10-positive cells in the total cells ([3]; PMA 0.2 μM day 0) | cell aggregates collapsed [1, 4] | neural tissue formation efficiency [1, 4] | cell aggregates collapsed [1, 5] | formation efficiency of neural tissue [1, 5] |
| --- | --- | --- | --- | --- | --- | --- | --- | --- |
| Shh: human recombinant Shh (manufactured by R&D, Recombinant N-Terminus), Sonic hedgehog signal transduction pathway activating substance | cell aggregates grew and neuroepithelium was formed | neuroepithelium was formed | contained Chx10-positive cells |  |  |  |  |  |
| c1ccc2c(Oc3nc(Nc4ccc(N5CCOCC5)cc4)c4ncn(C5CCCCC5)c4n3)cccc2c1 [PMA, 9-cyclohexyl-N-[4-(4-morpholinyl)phenyl]-2-(l-naphthalenyloxy)-9H-purin-6-amine] | cell aggregates grew and neuroepithelium was formed | neuroepithelium was formed |  | not more than 60% |  |  |  |  |
| B1 |  |  |  |  | not less than 90% | poor | not less than 80% | poor |
